Data: article PMC4837482, “The complex binding mode of the peptide hormone H2 relaxin to its receptor RXFP1” (Nature Communications, 2016)
Where no end group is shown, it is not given here. The star is where a group is joined. DTPA = O=C(O)CN(CCN(CC(=O)O)CC(=O)O)CCN(CC(=O)O)CC(=O)*

Tests used:
[1] = biological target: T1, relaxin family peptide receptor-1 (RXFP1), wild type, full length (human, UniProt Q9HBX9 23-757); assay: europium-labelled ligand saturation binding on cells (time-resolved fluorescence); HEK293T cells transiently transfected with receptor, 96-well plates; increasing Eu-H2 relaxin (maximum 15 nM) with or without 1 μM unlabelled H2 relaxin, 1 h, room temperature; 20 mM HEPES pH 7.5, 1.5 mM CaCl2, 50 mM NaCl, 0.01% NaN3, 1% BSA; one-site fit; details: one partner purified
T1 construct: also called wild-type RXFP1; source: HEK293T, transiently transfected, on cells; not shown: FLAG, N-terminal, kept
T1 sequence (looked up): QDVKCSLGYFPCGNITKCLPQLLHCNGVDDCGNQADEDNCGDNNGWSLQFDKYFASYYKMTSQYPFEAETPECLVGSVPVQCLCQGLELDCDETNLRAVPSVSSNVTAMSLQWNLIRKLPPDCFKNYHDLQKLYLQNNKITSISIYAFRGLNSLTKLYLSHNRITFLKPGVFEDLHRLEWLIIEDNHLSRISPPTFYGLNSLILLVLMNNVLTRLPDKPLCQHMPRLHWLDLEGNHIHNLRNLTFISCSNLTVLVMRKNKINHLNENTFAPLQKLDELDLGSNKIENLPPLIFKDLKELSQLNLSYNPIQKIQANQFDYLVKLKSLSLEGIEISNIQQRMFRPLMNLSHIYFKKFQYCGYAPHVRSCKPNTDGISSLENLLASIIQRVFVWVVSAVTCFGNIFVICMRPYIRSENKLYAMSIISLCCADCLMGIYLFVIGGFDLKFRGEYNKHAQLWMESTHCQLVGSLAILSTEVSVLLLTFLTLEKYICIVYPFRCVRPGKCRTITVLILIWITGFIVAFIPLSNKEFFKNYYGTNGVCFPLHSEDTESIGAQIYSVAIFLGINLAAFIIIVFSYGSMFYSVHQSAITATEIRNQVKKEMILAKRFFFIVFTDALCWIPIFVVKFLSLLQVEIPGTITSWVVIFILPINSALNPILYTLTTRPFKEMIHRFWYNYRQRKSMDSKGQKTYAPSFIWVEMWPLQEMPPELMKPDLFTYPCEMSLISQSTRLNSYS

[2] = biological target: RXFP1 F54A/Y58A, full length (human); assay: europium-labelled ligand saturation binding on cells (time-resolved fluorescence); HEK293T cells transiently transfected with receptor, 96-well plates; increasing Eu-H2 relaxin (maximum 15 nM) with or without 1 μM unlabelled H2 relaxin, 1 h, room temperature; 20 mM HEPES pH 7.5, […] CaCl2, 50 mM NaCl, 0.01% NaN3, 1% BSA; one-site fit
[3] = biological target: RXFP1 A55S, full length (human); assay: as above
[4] = biological target: RXFP1 Y57A, full length (human); assay: as above
[5] = biological target: RXFP1 W46A, full length (human); assay: as above
[6] = biological target: RXFP1 G45A, full length (human); assay: as above
[7] = biological target: RXFP1 Q49A/F50A, full length (human); assay: as above
[8] = biological target: RXFP1 A55L, full length (human); assay: as above
[9] = biological target: RXFP1 N43A, full length (human); assay: as above
[10] = biological target: RXFP1 M60A, full length (human); assay: as above
[11] = biological target: RXFP1 F50A, full length (human); assay: as above

B1: Europium-labelled H2 relaxin (ligand, human)
chain 1: {DTPA}-QLYSALANKCCHVGCTKRSLARFC
chain 2: DSWMEEVIKLCGRELVRAQIAICGMSTWS
modifications: not fully specified; ends and bridges not checked; also: DTPA cage loaded with Eu^3+
notes: A chain of human gene-2 (H2) relaxin; numbers count on: the A chain; B chain of human gene-2 (H2) relaxin; numbers count on: the B chain; also called Eu-H2 relaxin; Eu-H2
In the case of B1, the Kd [1] is reported as 0.57 nM, the Kd [2] is reported as 6.51 nM and the Kd [3] is reported as 0.8 nM. For the same binder, the Kd [4] was 0.81 nM, the Kd [5] was 12.3 nM and the Kd [6] was 19.1 nM. It also gave a Kd [7] of 6.74 nM, a Kd [8] of 1.54 nM and a Kd [9] of 2.55 nM. For the same binder, the Kd [10] was 1.08 nM and the Kd [11] was 6.48 nM.
